We go through one molecule from patent US20240002547A1, “T[…]-TARGETING CONSTRUCTS AND USES THEREOF” (AEBI LTD., priority 2016, published 2024).

The assay addresses human EGFR on A431 and MCF-7 cells (human), P00533. The assay can be described thus: cell-based or functional assay.

B1: E13.3 (peptide)
peptide: CHPGDKQEDPNCLQADK
modifications: not checked
Take B1: the IC50 of inhibition of EGFR autophosphorylation in A431 cells came out at 2 µM and the Normalized Percent of EGFR autophosphorylation inhibition turned out to be 99.4%.
